From the supplement of paper PMC10567573

B1: C10orf62 (parent)
chain: GHSHHSHHGHPSHQSHSLPNRRH
B2: FBXO3 (parent)
chain: AGGFQQRQGLKYCLPLTFCIHTGL

Variants of: B1
Assay: protein stability index of a GFP-peptide fusion (GPS, HEK-293T) (PSI 1-6); higher = more stable
Details: c terminus: native
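Also: lentivirally expressed fusions sorted by FACS into six bins by GFP to DsRed ratio, PSI derived from sequencing read proportions per bin multiplied by bin number.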

Protein stability index, by site and new letter:
L18: P 2.11 | A 3.18 | E 3.19 | R 4.23 | K 1.51 | W 3.46 | C 2.94 | D 1.85 | Q 3.76 | H 4.06 | M 2.16 | V 2.52 | Y 2.08 | F 3.24 | N 2.88 | I 3.49 | T 2.27 | G 2.38
S15: W 2.92 | V 3.59 | A 3.68 | N 3.44 | M 2.74 | E 3.39 | G 3.98 | F 2.19 | H 2.48 | Q 2.95 | T 2.91 | D 2.07 | R 3.2 | K 3.18 | P 3.1 | Y 2.6
S12: R 4.62 | E 3 | M 2.27 | T 2.57 | Q 1.6 | L 2.34 | G 2.75 | W 3.49 | I 4.18 | Y 2.21 | N 3.1 | D 2.98 | P 3.31 | A 2.22
R21: I 2.36 | V 1.39 | F 2.13 | W 2.43 | C 4.2 | E 2.81 | T 1.81 | G 1.71 | P 2.05 | Q 2.38 | Y 2.17 | A 1.97 | S 1.67 | M 2 | L 1.81 | N 2.6 | K 1.94 | H 2.67 | D 2.2
P11: N 2.98 | L 3.12 | G 3.85 | C 4.84 | F 2.29 | W 2.03 | S 2.71 | Y 2.47 | A 3.2 | D 2.88 | Q 3.94 | E 2.1 | R 3.75 | V 2.5 | T 2.56 | M 1.92 | K 4.06 | I 4.55
S17: Q 2.82 | A 2.08 | Y 4.98 | D 2.43 | G 3.77 | E 2.14 | V 1.69 | M 3.01 | C 2.65 | P 4.04 | F 1.8 | T 4.17 | I 2.64 | R 4.84 | W 2.37
Q14: H 3.42 | W 3.44 | M 4.32 | F 2.56 | G 2.82 | E 2 | S 2.26 | V 2.08 | I 2.95 | Y 1.85 | D 3.4 | R 3.61 | N 2.92 | P 2.67 | T 3.78 | K 2.75 | A 3.39
P19: Q 2.38 | E 2 | H 2.4 | C 2.95 | F 2.38 | L 2.28 | N 2.4 | T 4.47 | D 3.02 | R 2.09 | G 2.35 | Y 3.05 | K 2.15
N20: E 4.47 | D 3.58 | L 3.05 | Y 2.58 | A 2.97 | T 3.28 | F 2.31 | I 2.29 | M 3.84 | P 2.07 | K 3.23 | H 2.44 | S 1.35 | G 4.22 | Q 1.94 | V 3.13
R22: T 3.14 | Y 2.11 | Q 2.69 | K 4 | W 2.86 | M 3 | E 2 | F 2.84 | P 3.56 | L 1.29 | S 3.94 | D 3.39 | G 2.15 | H 4.93 | A 3.28
H10: M 2.98 | R 3.48 | T 2.53 | W 3.14 | Y 3.67 | P 2.43 | S 2.08 | Q 3.81
H23: R 4.71 | Y 3.4 | S 2.88 | Q 2.48 | F 2.77 | W 2.25 | K 4.73 | A 2.23 | L 3.52 | T 2.88 | P 2.31 | N 3.15 | V 2.35 | I 2.78 | C 2.68 | M 2.18
H13: A 3.6 | E 2.68 | K 2.51 | Y 3.26 | S 2.65 | C 3.33 | L 3.34 | F 3.57 | R 2.55 | M 5.42 | P 2.47 | T 3.08 | W 2.6 | D 2.86 | Q 2.12
H16: A 2.55 | M 2.32 | I 3.15 | P 2.52 | E 1.78 | V 2.2 | W 3.05 | D 3.54 | G 3.63 | S 3 | T 2.08 | C 2.19 | F 3.84

Variants of: B2
Assay: as above
Details: c terminus: a fixed tail appended

Protein stability index: each site, then its substitutions
Q5: I 2.17 | V 2.33 | Y 3.66 | S 3.59 | R 2.27 | P 1.71 | K 2.88 | M 2.17 | W 3.08 | A 3.05 | C 3.02 | D 2.34 | N 2.77 | H 1.87 | L 2.32 | G 3.92 | F 1.98 | T 2
G3: K 2.51 | V 2.54 | R 3.24 | F 3.02 | T 3.31 | N 3.27 | C 2.66 | S 2.44 | E 1.99 | Y 3.02 | L 3.11 | A 1.48 | Q 4.36 | D 3.1 | P 1.51 | M 2.47
A1: T 3.47 | G 3.9 | E 2.57 | S 2.65 | D 2.89 | M 3.13 | C 2.76 | I 2 | N 2.47 | F 3.41 | W 5.07 | L 2.46 | V 2.89 | Q 2.55 | H 3.55 | R 2.39 | Y 3.08 | K 1.87 | P 2.91
R7: P 3.24 | Y 2.27 | L 3.44 | S 2.33 | C 2.54 | I 2.12 | F 3.23 | T 2.6 | H 2.74 | N 2.95 | V 3.75 | G 3.16 | D 2.64 | E 2.83
Q6: M 2.1 | N 3.27 | I 3.58 | R 2.77 | H 3.73 | D 1.89 | G 2.7 | W 3.85 | E 3.6 | K 3.51 | Y 2.09 | S 2.81 | C 2.8 | L 3.23 | P 3.26 | T 2.67 | A 2.26 | V 2.68
Q8: D 1.88 | C 3.53 | H 2.66 | K 3.23 | F 2.59 | I 2.51 | G 3.4 | A 2.82
F4: I 3.07 | Q 2.37 | M 2.69 | S 2.38 | E 3.03 | P 2.09 | Y 2.42 | D 1.87 | H 2.54 | R 2.36 | C 2.66 | A 3.49 | T 2.82
G2: K 3.68 | T 1.88 | Y 2.4 | H 4.03 | C 2.6 | I 4.2 | P 2.79 | E 2.36 | N 2.94 | F 2.79 | R 2.59 | S 3.13 | L 2.79 | V 2.97 | D 1.68
